This is an account of results in patent EP4806914A1 (Daicel Corporation, dated 2026).

This test has as its target T1, AAV9 empty capsid (adeno-associated virus serotype 9 (AAV9), Assembled icosahedral particle of about 60 copies of VP1, VP2 and VP3 (nested forms of one cap gene product) with no nuc [CUT]).
T1 construct: Assembled viral particle without nucleic acid, adsorbed to a Maxisorp plate; It has the same capsid protein as the full capsid and differs only in the packaged nucleic acid; also called AAV9 empty capsid sample; AAV empty capsids
Briefly: ELISA, 0.1 ug AAV9 coated on Maxisorp plate, scFv detected with HRP-labeled anti-His-Tag antibody, A450-A650; reference: blank (BSA). (In general: In an ELISA, binding on a coated surface is turned into a signal by an enzyme label.)

B1: second anti-AAV-scFv [2] (scFv)
scFv: QSLEESGGDLVKPGASLTLTCTASGFSFSSNYWMFWVRQAPGKGLEWIAHIYGGSSGSTYYASWAKGRFTISKTSSTTVTLQMTSLTAADTATYFCATVDNGYSDLKLWGPGTLVTVTSGGGGSGGGGSGGGGSELVLTQTADSVEAGVGGTVTIKCQASQSIRNWLSWYQQKPGQPPKLLISRASTLASGVPSRFSGSGSGTEFTLTISDLECDDGATYYCQSSFYADSGEPAFGGGTEVDIKRSAAAGGGSEQKLISEEDLGGGSHHHHHH
notes: Rabbit-derived scFv from a phage library, purified from E. coli culture supernatant with His MultiTrap FF; also called second anti-AAV full capsid molecule
For B1, the “IE/IB (ratio of ELISA absorbance for the empty capsid sample to that for the blank (BSA))” value turned out to be 3.7 ratio.
